Here are results for 1 molecule from publication PMC4284078 (Virology, 2014).

For this experiment, the target named is recombinant full-length HSP70 in fusion with N-terminal maltose binding protein (MBP) (UniProt P0DMV8 1-641). Nature of the experiment: SPR. (In general: In SPR one partner is held on a chip, and binding of the other changes the refractive index at the surface.)
recombinant full-length HSP70 in fusion with N-terminal maltose binding protein (MBP), sequence (P0DMV8 whole entry, the tested form may be a part): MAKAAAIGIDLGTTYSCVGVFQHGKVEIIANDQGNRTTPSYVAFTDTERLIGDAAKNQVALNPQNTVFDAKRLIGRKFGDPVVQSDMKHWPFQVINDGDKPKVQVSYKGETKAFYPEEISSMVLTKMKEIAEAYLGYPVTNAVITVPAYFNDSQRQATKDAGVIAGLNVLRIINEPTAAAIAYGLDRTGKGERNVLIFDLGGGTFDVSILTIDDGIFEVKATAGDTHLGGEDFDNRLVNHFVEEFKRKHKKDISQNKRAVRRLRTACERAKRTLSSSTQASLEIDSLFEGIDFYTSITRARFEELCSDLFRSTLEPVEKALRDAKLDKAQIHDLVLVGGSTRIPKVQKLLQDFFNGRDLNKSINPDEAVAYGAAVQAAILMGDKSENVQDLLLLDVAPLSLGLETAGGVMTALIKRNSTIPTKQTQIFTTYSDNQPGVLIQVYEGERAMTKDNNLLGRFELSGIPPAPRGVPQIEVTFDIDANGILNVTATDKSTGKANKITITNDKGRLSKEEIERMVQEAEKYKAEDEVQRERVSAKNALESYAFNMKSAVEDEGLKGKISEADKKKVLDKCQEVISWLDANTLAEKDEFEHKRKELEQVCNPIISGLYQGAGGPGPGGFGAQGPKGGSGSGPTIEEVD

B1: NS5A domain I (domain or fragment)
chain: SGSWLRDIWDWICEVLSDFKTWLKAKLMPQLPGIPFVSCQRGYRGVWRGDGIMHTRCHCGAEITGHVKNGTMRIVGPRTCKNMWSGTFFINAYTTGPCTPLPAPNYKFALWRVSAEEYVEIRRVGDFHYVSGMTTDNLKCPCQIPSPEFFTELDGVRLHRFAPPCKPLLREEVSFRVGLHEYPVGSQLPCEPEPDVAVLTSMLTDPSHITAEA
Usually Kd stands for the free concentration of one partner at which half of the binding sites on the other are occupied at equilibrium, for simple one-to-one binding. For B1, the Kd turned out to be 316 nM.
